Reference: paper PMC5036783 (Biophysics, 2011)

Key:
Experiment in all cases: pull-down; Ni-NTA resin holding histidine tagged fusion pHtrII from cell-free translation; untagged ppR 0.8 mM and pHtrII 0.08 mM mixed in buffer S (300 mM NaCl, 50 mM MES, 5 mM imidazole, pH 6.5) with 0.1% DDM, 1 h, room temperature; eluted ppR read by absorbance at 498 nm
Settings in all cases: one partner purified
[1] = biological target: T1, thioredoxin-tagged pHtrII 1-114 (cell-free) (Natronomonas pharaonis, UniProt P42259 1-114)
T1 sequence (looked up): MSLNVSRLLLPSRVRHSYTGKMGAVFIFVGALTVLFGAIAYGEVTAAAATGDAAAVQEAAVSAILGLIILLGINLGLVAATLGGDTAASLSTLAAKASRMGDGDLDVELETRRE

[2] = biological target: T2, glutathione S-transferase-tagged pHtrII 1-114 (cell-free) (Natronomonas pharaonis, UniProt P42259 1-114)
T2 sequence (looked up): T1 sequence (looked up)

[3] = biological target: T3, green fluorescent protein-tagged pHtrII 1-114 (cell-free) (Natronomonas pharaonis, UniProt P42259 1-114)
T3 sequence (looked up): T1 sequence (looked up)

Measured: binding activity relative to pHtrII expressed in E. coli

B1: pharaonis phoborhodopsin (ppR), untagged (natural protein, Natronomonas pharaonis, UniProt P42196 1-239, looked up)
chain: MVGLTTLFWLGAIGMLVGTLAFAWAGRDAGSGERRYYVTLVGISGIAAVAYVVMALGVGWVPVAERTVFAPRYIDWILTTPLIVYFLGLLAGLDSREFGIVITLNTVVMLAGFAGAMVPGIERYALFGMGAVAFLGLVYYLVGPMTESASQRSSGIKSLYVRLRNLTVILWAIYPFIWLLGPPGVALLTPTVDVALIVYLDLVTKVGFGFIALDAAATLRAEHGESLAGVDTDAPAVAD
~50%: all assays above
